Test results published in patent US20080124327A1 (published 2008).
Values belong to the binder of their own block, whether it stands above or below them.

Biological target: T1, Recombinant human CD44/Fc (R&D Systems, Minneapolis, Minn., USA) (human, UniProt P16070 21-220)
T1 construct: Purchased reagent, amine-coupled to a CM5 chip at about 500 RU; also called rhCD44; recombinant CD44; not shown: Fc part of the purchased fusion
Assay: SPR (Biacore T100); rhCD44/Fc amine-coupled to a CM5 chip, antibody injected at 0.67 to 667 nM, 1:1 model

T1 sequence (P16070 21-220): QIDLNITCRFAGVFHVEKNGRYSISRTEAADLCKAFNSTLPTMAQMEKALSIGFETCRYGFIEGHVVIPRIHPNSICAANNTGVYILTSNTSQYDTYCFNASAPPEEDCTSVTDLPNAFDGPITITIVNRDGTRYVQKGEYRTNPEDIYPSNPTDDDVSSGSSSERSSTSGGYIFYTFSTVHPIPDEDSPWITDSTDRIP

Kd: 6.32 nM
B1: (hu)ARH460-16-2 variant HV1/KV1 (antibody, V domains shown)
VH: EVQLVESGGGLVQPGGSLRLSCAASGFDFSRYWMSWVRQAPGKGLVWVGEVNPDSTSINYTPSLKDRFTISRDNAKNTLYLQMNSLRAEDTAVYYCTRPNYYGSRYHYYAMDYWGQGTLVTVSS
VL: DIQMTQSPSSLSASVGDRVTITCRASQDINNYLNWYQQKPGKAPKLLIYYTSRLHSGVPSRFSGSGSGTDFTFTISSLQPEDIATYYCQQGSTLPFTFGQGTKLEIK
notes: Humanized variable regions cloned into pANT18 (human IgG1 constant region, human kappa constant region); also called (hu)ARH460-16-2 variant 1; huARH460-16-2-variant 1

Kd: 4.19 nM
B2: H460-16-2 (murine monoclonal antibody produced by the hybridoma deposited with the ATCC as accession number PTA-4621) (antibody, V domains shown)
VH: EVKLLESGGGLVQPGGSLKLSCATSGFDFSRYWMSWVRQAPGKGLEWIGEVNPDSTSINYTPSLKDQFIISRDNAKNTLDLQMSKVSSEDTALYYCTRPNYYGSRYHYYAMDYWGQGTSVTVSS
VL: DIQMTQTTSSLSVSLGDRVTINCRASQDINNYLNWYQQKPDGTVKLLIYYTSRLHSGVPSRFSGSGSGTDFSLTISNLEKEDVATYFCQQGSTLPFTFGSGTKLEIK
